Target: MtrC_(DI,II,memb), lipid-anchored truncated MtrC comprised only of domains I and II (Shewanella oneidensis MR-1) (UniProt Q8EG34)

Substance: soluble OmcA (from UniProt Q8EG33 1-735) (natural protein)
- rate of reduction of 700 nM soluble OmcA by whole S. oneidensis ΔmtrC/omcA cells producing MtrC (DI,II)AB, against S. oneidensis MR-1 (fold lower rate): 4

Reference: PMC12304082
